Results taken from patent publication US10208290B2, “Virion display array for profiling functions and interactions of human membrane proteins” (THE JOHNS HOPKINS UNIVERSITY, priority 2013, dated 2019).

What was measured:
[1] = test system: GPR77; experiment: Ligand binding assay on VirD Array; set-up: species or system human; conditions: C5a at 1 μM
Procedure: (§1) Ligand binding assay on VirD Array. The VirD Array was blocked in TBST with 1% BSA for 1 h at room temperature with gentle shaking. C5a (Abcam) was labeled with Cy5 NHS Easter (GE Healthcare) and incubated on the VirD Array at 1 μM in ligand binding buffer (1 mM MgCl2, 2 mM CalCl2, 0.2% BSA, and 25 mM HEPES, pH 7.4) at room temperature for 1 h with gentle shaking. The array was washed for […] in ice-cold washing buffer (0.5 M NaCl in 10 mM HEPES, pH 7.4) for 3 times with shaking, dried by spinning, and scanned as described above.

[2] = molecular target: T1, GPR77 (Homo sapiens, UniProt Q9P296); experiment: Ligand binding assay on VirD Array; conditions: C5a at 1 μM, gB:GPR77 virions on VirD Array
T1 construct: gB:CD4 and gB:GPR77, express the full-length human membrane proteins at the gB locus under the control of native gB promoter; made in house; host or cells: HFT cells (telomerase-immortalised human foreskin fibroblasts) infected with recombinant HSV-1; purified extracellular virions
Procedure: as §1

T1 sequence (Q9P296 whole entry): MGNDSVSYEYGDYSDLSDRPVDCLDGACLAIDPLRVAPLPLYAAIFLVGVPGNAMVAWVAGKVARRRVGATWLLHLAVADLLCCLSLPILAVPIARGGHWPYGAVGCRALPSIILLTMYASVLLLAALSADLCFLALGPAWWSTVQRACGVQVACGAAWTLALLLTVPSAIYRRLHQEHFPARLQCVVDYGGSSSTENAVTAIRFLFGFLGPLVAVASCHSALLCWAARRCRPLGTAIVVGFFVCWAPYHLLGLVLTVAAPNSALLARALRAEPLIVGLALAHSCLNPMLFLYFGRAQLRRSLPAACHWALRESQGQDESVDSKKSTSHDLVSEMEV

B1: C5a: complement anaphylatoxin C5a, canonical ligand of GPR77 (Abcam), labeled with Cy5 (protein)
chain: TLQKKIEEIAAKYKHSVVKKCCYDGACVNNDETCEQRAARISLGPRCIKAFTECCVVASQLRANISHKDMQLGR
binding of Cy5-labeled C5a to GPR77-gC virions ([1]; GPR77-gC virions on VirD Array): strong binding activity
binding of Cy5-labeled C5a to other virions ([1]; other virions on VirD Array (specificity)): no detectable signals
binding of Cy5-labeled C5a to gB:GPR77 virions [2]: weaker binding signals
